These results are taken from paper PMC1363732, “SUV39H1 interacts with HTLV-1 Tax and abrogates Tax transactivation of HTLV-1 LTR” (Retrovirology, 2006).

In experiment [1] the target is T1, bacterially expressed GST-SUV39H1, wild type (human, UniProt O43463 1-412).
T1 construct: human SUV39H1, wild type; cDNA amplified from the start to the stop codon (SUV39H1-F1, SUV39H1-R1); the text counts the protein to amino acid 412; also called SUV39H1-WT; GST-fusion SUV39H1; source: bacterially expressed (pGEX5X-3), purified (Glutathione Sepharose 4B)
T1 sequence (looked up): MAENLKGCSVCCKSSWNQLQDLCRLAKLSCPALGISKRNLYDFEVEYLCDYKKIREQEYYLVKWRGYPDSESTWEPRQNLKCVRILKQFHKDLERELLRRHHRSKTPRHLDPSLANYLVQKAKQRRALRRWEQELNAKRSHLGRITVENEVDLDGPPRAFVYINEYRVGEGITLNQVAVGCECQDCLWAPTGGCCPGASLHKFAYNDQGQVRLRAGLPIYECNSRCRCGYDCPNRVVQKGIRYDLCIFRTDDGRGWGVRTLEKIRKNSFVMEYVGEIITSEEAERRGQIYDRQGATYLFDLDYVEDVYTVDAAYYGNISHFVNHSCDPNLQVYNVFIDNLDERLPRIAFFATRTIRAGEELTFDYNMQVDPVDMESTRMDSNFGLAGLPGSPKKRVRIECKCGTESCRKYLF
As to the kind of experiment: pull-down; GST-SUV39H1 bound to Glutathione-Sepharose 4B, mixed with in vitro translated 35S-labeled Tax proteins (one fourth of the reaction mixture); autoradiography, signals by BAS2000. The conditions noted are these: one partner purified.

For the next experiment, the target named is T2, GST-SUV39H1 ΔSET (human, UniProt O43463 1-249).
T2 construct: human SUV39H1 that lost the SET domain and the C-terminal cysteine-rich region but keeps the SET-associated Cys-rich (SAC) domain; the text states no limits; source: bacterially expressed (pGEX5X-3), purified (Glutathione Sepharose 4B)
T2 sequence (looked up): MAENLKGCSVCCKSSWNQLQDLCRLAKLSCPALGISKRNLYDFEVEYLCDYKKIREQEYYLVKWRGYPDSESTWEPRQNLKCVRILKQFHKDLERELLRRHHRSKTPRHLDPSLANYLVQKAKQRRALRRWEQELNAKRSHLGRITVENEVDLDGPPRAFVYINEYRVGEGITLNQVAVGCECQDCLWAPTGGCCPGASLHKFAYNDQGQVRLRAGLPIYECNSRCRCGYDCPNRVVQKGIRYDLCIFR
As to the kind of experiment: pull-down; wild type or mutant GST-SUV39H1 or GST (2 ug) bound to Glutathione-Sepharose 4B, mixed with His-tagged Tax (2 ug) in cold PBS, 4°C, one hour; immunoblot with Lt-4; band intensities by NIH Image. The following applies: both partners purified.

A further experiment has as its target T3, GST-SUV39H1 Nchromo (human, UniProt O43463 1-118).
T3 construct: human SUV39H1, C-terminal deletion up to amino acid 118 (SAC domain lost); source: bacterially expressed (pGEX5X-3), purified (Glutathione Sepharose 4B)
T3 sequence (looked up): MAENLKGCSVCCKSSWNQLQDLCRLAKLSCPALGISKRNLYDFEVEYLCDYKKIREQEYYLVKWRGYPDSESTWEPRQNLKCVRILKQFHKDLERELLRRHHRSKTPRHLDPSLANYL
The experiment is described as above. The conditions noted are these: both partners purified.

B1: in vitro translated TaxN180 (domain or fragment)
chain: not shown
modifications: labeled with 35S-methionine
notes: HTLV-1 Tax with a C-terminal deletion up to 180 amino acids; source: in vitro translated (TNT QuickCoupled Transcription/Translation Systems, Promega)
For the molecule B1, the “radioactivity relative to the wild type Tax” value in experiment [1] was ~0.5 of the radioactivity of the wild type Tax.

B2: histidine-tagged wild type Tax (His-Tax) (natural protein)
chain: not shown
notes: Tax protein of HTLV-1, wild type; also called His-tagged Tax protein; source: bacterially expressed (pET3d/Tax), purified (ProBond Resin)
For B2, the “band intensity relative to the wild type” value in the experiment with GST-SUV39H1 ΔSET is < 0.5 of the band intensity of the wild type; in the experiment with GST-SUV39H1 Nchromo, ~0.1 of the band intensity of the wild type.
